Test results taken from paper PMC7820937.
Like-named read-outs stand apart in the source and are kept apart here.

Experiments:
Assay in all cases: ELISA
[1] = biological target: C4BP α-chain deletant ΔCCP6 (human) (UniProt P04003)
[2] = biological target: C4BP α-chain deletant ΔCCP7 (human) (UniProt P04003)
[3] = biological target: C4BP α-chain deletant ΔCCP2 (human) (UniProt P04003)
[4] = biological target: C4BP α-chain deletant ΔCCP5 (human) (UniProt P04003)
[5] = biological target: C4BP α-chain deletant ΔCCP8 (human) (UniProt P04003)
[6] = biological target: C4BP α-chain deletant ΔCCP3 (human) (UniProt P04003)
[7] = biological target: C4BP α-chain deletant ΔCCP1 (human) (UniProt P04003)
[8] = biological target: C4BP α-chain deletant ΔCCP4 (human) (UniProt P04003)
[9] = biological target: C4BP α-chain deletant ΔCCP5 (human) (UniProt P04003); remark: listed apart in the source
[10] = biological target: C4BP α-chain deletant ΔCCP4 (human) (UniProt P04003); remark: listed apart in the source

| Substance | percent increase of binding against full-length C4BP [1] | percent loss of binding against full-length C4BP [2] | percent loss of binding against full-length C4BP [3] | percent loss of binding against full-length C4BP [4] | percent loss of binding against full-length C4BP [5] | percent increase of binding against full-length C4BP [6] | percent loss of binding against full-length C4BP [7] | percent loss of binding against full-length C4BP [8] | percent loss of binding against full-length C4BP [9] | percent loss of binding against full-length C4BP [10] |
| --- | --- | --- | --- | --- | --- | --- | --- | --- | --- | --- |
| Influenza A virus A/England/2009 (H1N1), whole virus particles (complex) | 10% | 49% | 20% | 60% | 75% | 10% | 20% | 60% | 67% | 67% |
| Influenza A virus A/HK/99 (H3N2), whole virus particles (complex) | 10% | 62% | 80% | 80% | 75% | 10% | 80% | 80% |  |  |
